One data set has as its target T1, LyPls-PLD (rLyPls-PLD) (Thermocrispum sp. RD004668, UniProt A0A0U4VTN7).
T1 construct: gene lyspls; pET24a(+), E. coli SHuffle T7, HisTrap purified; kinetics calculated as monomer
The data set is described as follows: inhibition of LyPlsCho hydrolysis, choline oxidase/peroxidase colorimetric assay. In kind it is biochemical. The settings on record: read-out: Relative activity (%) ^a. From the text:
inhibition of LyPlsCho hydrolysis, choline oxidase/peroxidase colorimetric assay on LyPls-PLD (rLyPls-PLD)

Substrate in the data set “purified protein”: CCCCCCCCCCCCCCCC/C=C\OC[C@@H](O)COP(=O)(O)OCCN
The data set is described as follows: purified protein. The note with it: 80 mM Tris/HCl pH 8.0, 50 °C.

Substrate in data set [1]: CCCCCCCCCCCCCCCC/C=C\OC[C@@H](O)COP(=O)([O-])OCC[N+](C)(C)C
The data set is described as follows: choline release, choline oxidase/peroxidase colorimetric assay; nonlinear Michaelis-Menten fit. In kind it is biochemical, Thermocrispum sp. RD004668. The note with it: 80 mM Tris/HCl pH 8.0, 50 °C, 2 mM CaCl2, 30 s. From the text: choline release, choline oxidase/peroxidase colorimetric assay; nonlinear Michaelis-Menten fit on LyPls-PLD (rLyPls-PLD)

Substrate in data set [2]: CCCCCCCCCCCCCCCC/C=C\OC[C@@H](O)COP(=O)([O-])OCC[N+](C)(C)C
Briefly: choline release, choline oxidase/peroxidase colorimetric assay; Hanes-Woolf plot. The note with it: 80 mM Tris/HCl pH 8.0, 50 °C, 2 mM CaCl2. Format: biochemical, Thermocrispum sp. RD004668. An excerpt: choline release, choline oxidase/peroxidase colorimetric assay; Hanes-Woolf plot on LyPls-PLD (rLyPls-PLD)

The values below come from publication PMC5095149, “Molecular cloning, heterologous expression, and enzymatic characterization of lysoplasmalogen‐specific phospholipase D from Thermocrispum sp” (FEBS Open Bio, 2016).

As usually defined, the Km is the concentration of substrate that gives half-maximal velocity. A word on the kcat: it is the maximal rate divided by the concentration of active sites. The kcat/Km is the turnover number divided by the Michaelis constant.

As to `CCCCCCCCCCCCCCCCCC(=O)OC[C@@H](O)COP(=O)(O)O` [LPA, 1‐stearoyl‐2‐hydroxy‐sn‐glycero‐3‐phosphate], the activity at 4000 µM on LyPls-PLD (rLyPls-PLD) is 89.8 ± 0.3%.

Regarding `CCCCCCCCCCCCCCCC(=O)OC[C@@H](O)COP(=O)([O-])OCC[N+](C)(C)C` [LPC, 1‐palmitoyl‐2‐hydroxy‐sn‐glycero‐3‐phosphocholine], the activity at 4000 µM on LyPls-PLD (rLyPls-PLD) came out at 60.7 ± 0.5%.

B1: LyPls-PLD (rLyPls-PLD) (Thermocrispum sp. RD004668) (protein)
chain: TTRTTDNPWLDARVLNMAHAGGENEAPANTLYAFKRAVKLGANMLELDVQSTKDDQLVVIHNATVDQTTDGTGKVRDLTFEQVHELDAAYNFIPGRHAVPGEPPESYPLRGVRTGEKKPPPGYQPSDFAIPKLADVLEAFPRTPINIEIKGTSDADIPSFLHNAKLLARLLKKTGRTDFIVTSFNDLAVAKFHLLAPDIPIAPGMAGLAAYFLLGVKPMHGTVALQIPVRYQGLEIATPEFIRRAHADGYAVHVWFSGTAPDDEATYNRIIDSCADGLMPAYPALLERILDERGIERPGRPGVDPCG
notes: pET24a(+), E. coli SHuffle T7, HisTrap purified; kinetics calculated as monomer
For the molecule B1, in the data set “purified protein” (2 mM CaCl2, 3 min), the Michaelis constant (Km) was 456 µM, the kcat was determined as 4.51 s⁻¹ and the kcat/Km was found to be 9900 M⁻¹ s⁻¹. Moreover, in data set [1], the Km worked out at 13.2 µM, the kcat is 70.6 s⁻¹ and the kcat/Km was 5.34e+06 M⁻¹ s⁻¹.

B2: LyPls-PLD (rLyPls-PLD) (Thermocrispum sp. RD004668; F211A) (protein)
chain: TTRTTDNPWLDARVLNMAHAGGENEAPANTLYAFKRAVKLGANMLELDVQSTKDDQLVVIHNATVDQTTDGTGKVRDLTFEQVHELDAAYNFIPGRHAVPGEPPESYPLRGVRTGEKKPPPGYQPSDFAIPKLADVLEAFPRTPINIEIKGTSDADIPSFLHNAKLLARLLKKTGRTDFIVTSANDLAVAKFHLLAPDIPIAPGMAGLAAYFLLGVKPMHGTVALQIPVRYQGLEIATPEFIRRAHADGYAVHVWFSGTAPDDEATYNRIIDSCADGLMPAYPALLERILDERGIERPGRPGVDPCG
notes: as for B1
In the case of B2, in “purified protein” (2 mM CaCl2), the Km came to 281 µM, the kcat came to 2.88 s⁻¹ and the kcat/Km was 10300 M⁻¹ s⁻¹. Moreover, in data set [2], the Km came to 112 µM, the kcat came to 24.8 s⁻¹ and the kcat/Km is 221000 M⁻¹ s⁻¹.
